Measured values published in paper PMC11202169, “A Novel Fluorescence-Based Microplate Assay for High-Throughput Screening of hSULT1As Inhibitors” (Biosensors, 2024).

Assays:
Assay type in all cases: biochemical, human
Details in all cases: other: HN-241 4-O-sulfation
[1] = substrate: CCN1C(=O)c2cccc3c(O)ccc(c23)C1=O; assay: Enzymatic kinetics of hSULT1A1-catalyzed HN-241 4-O-sulfation
Experimental: (§1) The enzymatic kinetic parameters of hSULT1As-catalyzed HN-241 4-O-sulfation were measured by incubating increasing concentrations of HN-241 with each of the hSULT1As for a certain period. The fitting equations included Equation (2), the Michaelis–Menten equation, and Equation (3) for enzyme kinetics with substrate inhibition. Related kinetic parameters were fitted by GraphPad Prism 8.0 (San Diego, CA, USA). (2) V=Vmax × [S]/Km+[S] (3) V=Vmax × [S]/Km+[S](1+[S]/Ki)
(§2) [S] refers to the concentration of HN-241, Vmax is the maximum rate of hSULT1As-catalyzed HN-241 4-O-sulfation, Km is the substrate concentration at the half Vmax, and Ki represents the dissociation constant for the binding of the substrate to the inhibitory site.

[2] = substrate: CCN1C(=O)c2cccc3c(O)ccc(c23)C1=O; assay: Enzymatic kinetics of hSULT1A3-catalyzed HN-241 4-O-sulfation
Experimental: as §1, §2

[3] = substrate: CCN1C(=O)c2cccc3c(O)ccc(c23)C1=O; assay: Enzymatic kinetics of hSULT1A2-catalyzed HN-241 4-O-sulfation
Experimental: as §1, §2

B1: hSULT1A1 (Homo sapiens) (protein)
chain: MELIQDTSRPPLEYVKGVPLIKYFAEALGPLQSFQARPDDLLISTYPKSGTTWVSQILDMIYQGGDLEKCHRAPIFMRVPFLEFKAPGIPSGMETLKDTPAPRLLKTHLPLALLPQTLLDQKVKVVYVARNAKDVAVSYYHFYHMAKVHPEPGTWDSFLEKFMVGEVSYGSWYQHVQEWWELSRTHPVLYLFYEDMKENPKREIQKILEFVGRSLPEETVDFVVQHTSFKEMKKNPMTNYTTVPQEFMDHSISPFMRKGMAGDWKTTFTVAQNERFDADYAEKMAGCSLSFRSEL
notes: 6-histidine tag (N); TEV site (N); made in house; host or cells: Escherichia coli BL21 (DE3), pET29a(+)
Work on B1 yielded a Km [1] of 0.91 ± 0.24 µM, a Vmax [1] of 0.0221 ± 0.00443 µmol/min/mg and a Vmax/Km [1] of 24300 µL/min/mg.

B2: hSULT1A3 (Homo sapiens) (protein)
chain: MELIQDTSRPPLEYVKGVPLIKYFAEALGPLQSFQARPDDLLINTYPKSGTTWVSQILDMIYQGGDLEKCNRAPIYVRVPFLEVNDPGEPSGLETLKDTPPPRLIKSHLPLALLPQTLLDQKVKVVYVARNPKDVAVSYYHFHRMEKAHPEPGTWDSFLEKFMAGEVSYGSWYQHVQEWWELSRTHPVLYLFYEDMKENPKREIQKILEFVGRSLPEETMDFMVQHTSFKEMKKNPMTNYTTVPQELMDHSISPFMRKGMAGDWKTTFTVAQNERFDADYAEKMAGCSLSFRSEL
notes: as for B1
Protein B2 has a Km [2] of 12.90 ± 1.16 µM, a Vmax [2] of 0.00881 µmol/min/mg and a Vmax/Km [2] of 683 µL/min/mg.

B3: hSULT1A2 (Homo sapiens) (protein)
chain: MELIQDISRPPLEYVKGVPLIKYFAEALGPLQSFQARPDDLLISTYPKSGTTWVSQILDMIYQGGDLEKCHRAPIFMRVPFLEFKVPGIPSGMETLKNTPAPRLLKTHLPLALLPQTLLDQKVKVVYVARNAKDVAVSYYHFYHMAKVYPHPGTWESFLEKFMAGEVSYGSWYQHVQEWWELSRTHPVLYLFYEDMKENPKREIQKILEFVGRSLPEETVDLMVEHTSFKEMKKNPMTNYTTVRREFMDHSISPFMRKGMAGDWKTTFTVAQNERFDADYAKKMAGCSLSFRSEL
notes: as for B1
With B3 the Km [3] was 4.47 ± 0.20 µM, the Vmax [3] was 0.00644 µmol/min/mg and the Vmax/Km [3] was 1440 µL/min/mg.
